Target: T1, MBP-VH(BGP) labeled with ALEXA FLUOR 555 together with MBP-VL(BGP) labeled with ALEXA FLUOR 647 (labeled with ALEXA FLUOR 647 (labeled residues not stated); labeled with ALEXA FLUOR 555 (labeled residues not stated))
T1 construct: Two separate MBP-fused antibody fragments, covalently immobilized on a carboxymethyl dextran glass substrate; The MBP leader is part of the printed entries; also called fusion protein of anti-osteocalcin (BGP) VH-region polypeptide with MBP; fusion protein of anti-BGP VL-region polypeptide (antibody KTM219) with MBP
Experiment: FRET on immobilization substrates I and J

B1: C-terminal heptapeptide fragment of BGP (RRFYGPY) (peptide)
peptide: RRFYGPY
notes: also called BGP heptapeptide; BGP heptapeptide (RRFYGPY)
binding result: binds

— US20110237462A1 (FUJIFILM, published 2011)
